Assay results from patent US6509447B1, “G protein chimeras and methods of screening compounds” (Glaxo Welcome Inc., priority 1997, dated 2003).

Legend:
Design in all cases: key: weak activation insufficient to carry out curve-fitting was detected; NC: no coupling was detected
[1] = molecular target: T1, serotonin 5HT1A receptor (Homo sapiens, UniProt P08908); assay: CPRG assay, MMY11 cells expressing 5-HT1A receptor plus Gα subunit; type: cell-based
T1 construct: expressed in transfected cells; host or cells: Saccharomyces cerevisiae strains MMY9 and MMY11, plasmid pDT-PGK-5-HT1A
T1 sequence (P08908 1-422): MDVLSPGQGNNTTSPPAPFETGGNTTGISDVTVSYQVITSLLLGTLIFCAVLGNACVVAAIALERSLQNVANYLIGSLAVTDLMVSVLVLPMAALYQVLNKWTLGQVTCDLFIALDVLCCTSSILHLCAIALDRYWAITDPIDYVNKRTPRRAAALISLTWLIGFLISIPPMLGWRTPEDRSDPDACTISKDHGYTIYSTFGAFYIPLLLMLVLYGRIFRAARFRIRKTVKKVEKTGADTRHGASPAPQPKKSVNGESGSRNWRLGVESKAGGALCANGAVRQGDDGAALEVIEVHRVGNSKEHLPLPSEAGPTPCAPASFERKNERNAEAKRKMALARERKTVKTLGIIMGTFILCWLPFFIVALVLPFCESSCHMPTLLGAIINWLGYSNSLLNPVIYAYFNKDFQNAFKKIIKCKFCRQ
Method: (§1) Assay for combined FUS1-lacZ and FUS1-HIS3 Expression. In vivo assays of reporter gene induction (CPRG assays) were carried out by suspending cells to 0.02 OD600 in 200 μl SC-glucose (2%) lacking tryptophan, uracil and histidine. This medium was supplemented with agonists, and additionally 10 mM 3-aminotriazole and the β-galactosidase (lacZ) substrate chlorophenolred-β-D-galactopyranoside (CPRG; Boehringer) to a concentration of 0.1 mg/ml. To visualise the colour change reaction, the medium was buffered to pH 7 with 0.1 M sodium phosphate. The assay was conducted in a 96-well microtitre plate format. Plates were incubated for 24 hours without agitation, and absorbance at 570 nm was determined using a Victor microtitre plate reader (Wallac). EC50 values (+/−standard error) were estimated by curve-fitting, using the Robosage software package.
(§2) MMY11 was used in an experiment in which cells were transformed with pairs of plasmids as before, one to express a Gα subunit and the other a receptor expression construct. […] Where pheromone response pathway activation was detected, the agonist concentration required to yield a half-maximal response (EC50+/−standard error; all values in nM except where otherwise indicated) was determined by curve-fitting, and is shown in Table 4A. Where no coupling was detected, this is also indicated (NC).

[2] = molecular target: T2, serotonin 5HT1D receptor (Homo sapiens, UniProt P28221); assay: CPRG assay, MMY11 cells expressing 5-HT1D receptor plus Gα subunit; type: cell-based
T2 construct: expressed in transfected cells; host or cells: Saccharomyces cerevisiae strain MMY11, plasmid pDT-PGK-5-HT1D
T2 sequence (P28221 whole entry): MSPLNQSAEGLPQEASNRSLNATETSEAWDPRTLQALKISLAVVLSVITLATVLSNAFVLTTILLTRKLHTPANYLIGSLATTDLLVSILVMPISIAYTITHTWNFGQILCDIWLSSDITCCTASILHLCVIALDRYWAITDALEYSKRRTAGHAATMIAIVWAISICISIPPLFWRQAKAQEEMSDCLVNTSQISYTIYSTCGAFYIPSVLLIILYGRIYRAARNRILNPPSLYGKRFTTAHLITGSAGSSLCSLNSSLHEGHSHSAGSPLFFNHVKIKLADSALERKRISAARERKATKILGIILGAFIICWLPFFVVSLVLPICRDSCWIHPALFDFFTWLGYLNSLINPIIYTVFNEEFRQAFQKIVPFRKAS
Method: as §1, §2

[3] = system: purinergic nucleotide P2Y2 receptor; assay: CPRG assay, MMY9 cells expressing P2Y2 receptor plus Gα subunit; type: cell-based, human
purinergic nucleotide P2Y2 receptor, sequence (P41231 1-347 limits assumed): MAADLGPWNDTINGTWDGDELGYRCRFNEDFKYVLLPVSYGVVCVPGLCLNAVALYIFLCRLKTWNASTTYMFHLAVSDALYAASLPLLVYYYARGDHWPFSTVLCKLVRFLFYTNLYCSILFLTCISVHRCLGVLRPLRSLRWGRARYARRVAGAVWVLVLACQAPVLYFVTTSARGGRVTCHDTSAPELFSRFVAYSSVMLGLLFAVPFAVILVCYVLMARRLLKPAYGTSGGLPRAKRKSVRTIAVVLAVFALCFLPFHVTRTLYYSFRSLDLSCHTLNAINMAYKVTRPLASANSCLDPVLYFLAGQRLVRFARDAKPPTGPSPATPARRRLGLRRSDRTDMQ
Method: as §1
This experiment illustrates that, for certain receptors, the efficiency of coupling to the yeast pheromone response pathway can be enhanced by creating chimeras between yeast and mammalian Gα subunits. […] Agonist-dependent activation of FUS1-lacZ was determined by incubating cells in medium supplemented with the chromogenic, cell-permeant β-galacosidase (lacZ) substrate, chlorophenolred-β-D-galactopyranoside (CPRG; Boehringer Mannheim). […]

B1: Gpa1p: endogenous yeast Gα subunit, product of the GPA1 gene (protein, UniProt P08539 2-472, looked up)
Guanine nucleotide-binding …: GCTVSTQTIGDESDPFLQNKRANDVIEQSLQLEKQRDKNEIKLLLLGAGESGKSTVLKQLKLLHQGGFSHQERLQYAQVIWADAIQSMKILIIQARKLGIQLDCDDPINNKDLFACKRILLKAKALDYINASVAGGSDFLNDYVLKYSERYETRRRVQSTGRAKAAFDEDGNISNVKSDTDRDAETVTQNEDADRNNSSRINLQDICKDLNQEGDDQMFVRKTSREIQGQNRRNLIHEDIAKAIKQLWNNDKGIKQCFARSNEFQLEGSAAYYFDNIEKFASPNYVCTDEDILKGRIKTTGITETEFNIGSSKFKVLDAGGQRSERKKWIHCFEGITAVLFVLAMSEYDQMLFEDERVNRMHESIMLFDTLLNSKWFKDTPFILFLNKIDLFEEKVKSMPIRKYFPDYQGRVGDAEAGLKYFEKIFLSLNKTNKPIYVKRTCATDTQTMKFVLSAVTDLIIQQNLKKIGII
[1]
  coupling class where no EC50 could be fitted: weak
[2]
  coupling class where no EC50 could be fitted: NC
[3]
  coupling class where no EC50 could be fitted: weak
